IntAct's records for PubMed 17567753

B1: Lysine-specific demethylase 4A (Homo sapiens), O75164 (parent)
chain: MASESETLNPSARIMTFYPTMEEFRNFSRYIAYIESQGAHRAGLAKVVPPKEWKPRASYDDIDDLVIPAPIQQLVTGQSGLFTQYNIQKKAMTVREFRKIANSDKYCTPRYSEFEELERKYWKNLTFNPPIYGADVNGTLYEKHVDEWNIGRLRTILDLVEKESGITIEGVNTPYLYFGMWKTSFAWHTEDMDLYSINYLHFGEPKSWYSVPPEHGKRLERLAKGFFPGSAQSCEAFLRHKMTLISPLMLKKYGIPFDKVTQEAGEFMITFPYGYHAGFNHGFNCAESTNFATRRWIEYGKQAVLCSCRKDMVKISMDVFVRKFQPERYKLWKAGKDNTVIDHTLPTPEAAEFLKESELPPRAGNEEECPEEDMEGVEDGEEGDLKTSLAKHRIGTKRHRVCLEIPQEVSQSELFPKEDLSSEQYEMTECPAALAPVRPTHSSVRQVEDGLTFPDYSDSTEVKFEELKNVKLEEEDEEEEQAAAALDLSVNPASVGGRLVFSGSKKKSSSSLGSGSSRDSISSDSETSEPLSCRAQGQTGVLTVHSYAKGDGRVTVGEPCTRKKGSAARSFSERELAEVADEYMFSLEENKKSKGRRQPLSKLPRHHPLVLQECVSDDETSEQLTPEEEAEETEAWAKPLSQLWQNRPPNFEAEKEFNETMAQQAPHCAVCMIFQTYHQVEFGGFNQNCGNASDLAPQKQRTKPLIPEMCFTSTGCSTDINLSTPYLEEDGTSILVSCKKCSVRVHASCYGVPPAKASEDWMCSRCSANALEEDCCLCSLRGGALQRANDDRWVHVSCAVAILEARFVNIAERSPVDVSKIPLPRFKLKCIFCKKRRKRTAGCCVQCSHGRCPTAFHVSCAQAAGVMMQPDDWPFVVFITCFRHKIPNLERAKGALQSITAGQKVISKHKNGRFYQCEVVRLTTETFYEVNFDDGSFSDNLYPEDIVSQDCLQFGPPAEGEVVQVRWTDGQVYGAKFVASHPIQMYQVEFEDGSQLVVKRDDVYTLDEELPKRVKSRLSVASDMRFNEIFTEKEVKQEKKRQRVINSRYREDYIEPALYRAIME

Variants of: B1
Details: with h31t_human H3-4, Q16695

effect of a mutation on the interaction | Variant
disrupting interaction strength | G165A;G170A
disrupting interaction strength | G133A;G138A

Variants of: B1
Details: with h31t_human H3-4, Q16695
Remark: another data set of the same source

Variant | effect of a mutation on the interaction
N86A | decreasing interaction
Q88A | decreasing interaction
D135A | decreasing interaction
Y175F | decreasing interaction

Now from value to variant:

effect of a mutation on the interaction | Variant
disrupting interaction | K241L
disrupting interaction | K241A
disrupting interaction | N290I
disrupting interaction | N290V
disrupting interaction | N290A
disrupting interaction | N290D
disrupting interaction | Y177L
decreasing interaction | Y177F
